Experimental data published in patent publication US20080119424A1 (published 2008).

B1: TAP-PRAME-LREVV mutant protein (other)
chain: MERRRLRGSIQSRYISMSVWTSPRRLVELAGQSLLKDEALAIAALELLPRELFPPLFMAAFDGRHSQTLKAMVQAWPFTCLPLGVLMKGQHLHLETFKAVLDGLDVLLAQEVRPRRWKLQVLDLRKNSHQDFWTVWSGNRASLYSFPEPEAAQPMTKKRKVDGLSTEAEQPFIPVEVLVDLFLKEGACDELFSYLIEKVKRKKNVLRLCCKKLKIFAMPMQDIKMILKMVQLDSIEDLEVTCTWKLPTLAKFSPYLGQMINLRRLLLSHIHASSYISPEKEEQYIAQFTSQFLSLQCLQALYVDSLFFLRGRLDQLLRHVMNPLETLSITNCRLSEGDVMHLSQSPSVSQLSVLSLSGVMLTDVSPEPLQALLERASATLQDLVFDECGITDDQLLALLPSLSHCSQLTTLSFYGNSISISALQSLLQHLIGLSNLTHVLYPVPLESYEDIHGTLHLERLAYLHARLREVVCELGRPSMVWLSANPCPHCGDRTFYDPEPILCPCFMPN
notes: not shown: TAP tag
B2: PRAME-ΔLXXLL (other)
chain: MERRRLRGSIQSRYISMSVWTSPRRLVELAGQSLLKDEALAIAALELLPRELFPPLFMAAFDGRHSQTLKAMVQAWPFTCLPLGVLMKGQHLHLETFKAVLDGLDVVVAQEVRPRRWKLQVLDLRKNSHQDFWTVWSGNRASLYSFPEPEAAQPMTKKRKVDGLSTEAEQPFIPVEVLVDLFLKEGACDELFSYLIEKVKRKKNVLRLCCKKLKIFAMPMQDIKMILKMVQLDSIEDLEVTCTWKLPTLAKFSPYLGQMINVRRLLLSHIHASSYISPEKEEQYIAQFTSQFLSLQCLQALYVDSLFFLRGRLDQVVRHVMNPLETLSITNCRLSEGDVMHLSQSPSVSQLSVLSLSGVMLTDVSPEPVQALLERASATLQDLVFDECGITDDQLLAVVPSLSHCSQLTTLSFYGNSISISALQSVVQHLIGLSNLTHVLYPVPLESYEDIHGTLHLERLAYLHARLREVVCELGRPSMVWLSANPCPHCGDRTFYDPEPILCPCFMPN
notes: also called PRAME mutant in which all 7 NR boxes were mutated
B3: Gal4-… (416-509) (other, not shown: large carriers; small tags and cut ends)
chain: NSISISALQSLLQHLIGLSNLTHVLYPVPLESYEDIHGTLHLERLAYLHARLREVVCELGRPSMVWLSANPCPHCGDRTFYDPEPILCPCFMPN
notes: also called box 7 mutant

Tests used:
[1] = molecular target: T1, endogenous RARα (Retinoic Acid Receptor alpha) of mouse cells (mouse (endogenous in mouse embryonic …, UniProt P11416 1-462, limits assumed)); assay: co-immunoprecipitation, immunoblot for RARα
T1 construct: Endogenous protein detected by immunoblot with anti-RARα (C-20)
T1 sequence (looked up): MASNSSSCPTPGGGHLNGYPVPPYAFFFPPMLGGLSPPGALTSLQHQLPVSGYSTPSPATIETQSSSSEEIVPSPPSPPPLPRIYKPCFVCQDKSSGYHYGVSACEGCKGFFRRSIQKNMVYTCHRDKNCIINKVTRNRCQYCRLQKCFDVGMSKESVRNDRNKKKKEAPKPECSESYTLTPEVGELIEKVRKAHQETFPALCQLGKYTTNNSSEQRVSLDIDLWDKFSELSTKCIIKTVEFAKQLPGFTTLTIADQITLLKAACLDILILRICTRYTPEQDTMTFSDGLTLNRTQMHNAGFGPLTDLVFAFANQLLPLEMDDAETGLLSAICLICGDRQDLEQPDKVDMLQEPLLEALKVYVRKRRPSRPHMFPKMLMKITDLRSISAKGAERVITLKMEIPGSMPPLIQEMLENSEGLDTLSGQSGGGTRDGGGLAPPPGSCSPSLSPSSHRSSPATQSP
Experimental: Proteins were transferred to polyvinylidine difluoride membranes (Immobilon P, Millipore) and Western blots were probed with the indicated antibodies. For TAP (co-)immunoprecipitations cells were lysed in ELB buffer (0.25 M NaCl, 0.1% NP-40, 50 mM HEPES pH 7.3) supplemented with protease inhibitors and PMSF.

VP16-RARα LBD = molecular target: T2, VP16-RARα LBD (UniProt P10276 154-462); assay: mammalian two-hybrid assay (luciferase) in the presence of RA
T2 construct: domain: LBD
T2 sequence: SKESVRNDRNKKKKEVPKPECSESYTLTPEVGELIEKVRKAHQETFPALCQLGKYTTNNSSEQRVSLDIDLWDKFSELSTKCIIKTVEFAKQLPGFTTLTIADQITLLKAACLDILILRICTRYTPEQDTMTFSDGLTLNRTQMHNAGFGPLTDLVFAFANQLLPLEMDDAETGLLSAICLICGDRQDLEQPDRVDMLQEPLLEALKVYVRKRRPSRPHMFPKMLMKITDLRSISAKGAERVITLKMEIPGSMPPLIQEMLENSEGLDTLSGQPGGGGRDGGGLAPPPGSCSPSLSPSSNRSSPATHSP

Binder | binding result [1] | binding result (VP16-RARα LBD)
B1 | no binding | –
B2 | no binding | –
B3 | – | no binding
